Consider one substance from patent publication US20060165707A1.

In experiment [1] the target is … / HLA-A2 / β2m K58→E on T2 cells (human).
For experiment [2], the target named is … / HLA-A2 / wild-type β2m on T2 cells (human).

On to “HLA-A2 restricted parvovirus B19 specific CTL line (cells without a defined receptor)”, for which the specific lysis (51Cr release), E:T 22:1, 4 hours is 2.6% in experiment [1] and 7.3% in experiment [2].
